Our source for the Fold diff values is patent US20220332804A1 (CSL INNOVATION, published 2022).

Holding throughout (assay): SPR, KD relative to WT C2;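 further: biacore SPR at 37 °C, anti-C2 mAbs captured via immobilised goat anti-human IgG, C2 alanine or serine surface mutants as analytes, 1:1 model fitted, double-referenced sensograms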
(Surface plasmon resonance follows binding to a sensor surface in real time, without labels.)

Assay [1] addresses T1, human C2 R493A (human, UniProt P06681 21-752).
T1 sequence: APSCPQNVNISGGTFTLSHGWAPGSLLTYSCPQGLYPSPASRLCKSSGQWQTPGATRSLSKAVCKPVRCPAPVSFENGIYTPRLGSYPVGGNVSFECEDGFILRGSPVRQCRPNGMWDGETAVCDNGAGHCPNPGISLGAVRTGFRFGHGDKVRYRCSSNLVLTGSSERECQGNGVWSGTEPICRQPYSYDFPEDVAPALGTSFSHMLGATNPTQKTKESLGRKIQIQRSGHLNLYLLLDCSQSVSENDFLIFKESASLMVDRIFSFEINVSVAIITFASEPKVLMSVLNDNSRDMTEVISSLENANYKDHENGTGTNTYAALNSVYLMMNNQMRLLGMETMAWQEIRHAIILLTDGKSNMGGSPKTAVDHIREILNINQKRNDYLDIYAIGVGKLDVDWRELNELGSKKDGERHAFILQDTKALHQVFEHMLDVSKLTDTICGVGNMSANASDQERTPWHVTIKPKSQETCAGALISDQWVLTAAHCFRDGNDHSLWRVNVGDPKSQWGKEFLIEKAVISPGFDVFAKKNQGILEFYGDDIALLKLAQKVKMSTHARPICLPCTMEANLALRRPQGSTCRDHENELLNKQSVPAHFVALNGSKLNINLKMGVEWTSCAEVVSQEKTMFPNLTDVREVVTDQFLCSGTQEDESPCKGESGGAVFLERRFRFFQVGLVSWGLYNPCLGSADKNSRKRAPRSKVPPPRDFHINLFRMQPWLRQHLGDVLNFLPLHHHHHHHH

Assay [2] addresses T2, human C2 F270A (human, UniProt P06681 21-752).
T2 sequence: T1 sequence with F250A, A473R

In assay [3] the target is T3, human C2 K715A (human, UniProt P06681 21-752).
T3 sequence: T1 sequence with A473R, K695A

The target of assay [4] is T4, human C2 N621A (human, UniProt P06681 21-752).
T4 sequence: T1 sequence with A473R, N601A

Changes are numbered by the printed parent chain.

B1: RF16-226 (antibody, human IgG4 S228P, lambda)
heavy: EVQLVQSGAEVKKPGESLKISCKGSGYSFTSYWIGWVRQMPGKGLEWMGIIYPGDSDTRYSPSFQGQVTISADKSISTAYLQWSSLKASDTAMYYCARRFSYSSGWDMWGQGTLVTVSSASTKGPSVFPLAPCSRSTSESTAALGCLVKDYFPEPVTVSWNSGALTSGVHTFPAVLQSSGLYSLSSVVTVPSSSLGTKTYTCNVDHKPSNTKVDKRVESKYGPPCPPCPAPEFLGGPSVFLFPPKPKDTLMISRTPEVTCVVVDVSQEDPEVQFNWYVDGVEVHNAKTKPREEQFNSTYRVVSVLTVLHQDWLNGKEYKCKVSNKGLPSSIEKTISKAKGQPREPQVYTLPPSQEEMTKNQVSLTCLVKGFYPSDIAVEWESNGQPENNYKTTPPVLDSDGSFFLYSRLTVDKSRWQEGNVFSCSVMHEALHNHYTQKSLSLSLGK
light: SYELTQPPSVSVSPGQTARITCSGDALTSKYVAWYQQKSGLAPLLVIYEDTRRPSGIPAKFSGSSSGSVATLTISGAHGDDEADYYCYSTDASGHQRVFGGGTKLTVLSQPKAAPSVTLFPPSSEELQANKATLVCLISDFYPGAVTVAWKADGSPVKAGVETTKPSKQSNNKYAASSYLSLTPEQWKSHRSYSCQVTHEGSTVEKTVAPTECS
notes: pH-dependent anti-C2 antibody from a phage display library; also called WT
Consider B1, for which the Fold diff was 2 fold in assay [1], 10 fold in assay [2], 2 fold in assay [3] and 5 fold in assay [4].
